Measurements: US20100322920 (published 2010)
Values joined by “and” are separate entries in the source; they are usually repeats but may differ in a detail not shown here. Equal entries are not always repeated.

Target: T1, human CD30 (TNFRSF8), recombinant (human, UniProt P28908)
T1 chain: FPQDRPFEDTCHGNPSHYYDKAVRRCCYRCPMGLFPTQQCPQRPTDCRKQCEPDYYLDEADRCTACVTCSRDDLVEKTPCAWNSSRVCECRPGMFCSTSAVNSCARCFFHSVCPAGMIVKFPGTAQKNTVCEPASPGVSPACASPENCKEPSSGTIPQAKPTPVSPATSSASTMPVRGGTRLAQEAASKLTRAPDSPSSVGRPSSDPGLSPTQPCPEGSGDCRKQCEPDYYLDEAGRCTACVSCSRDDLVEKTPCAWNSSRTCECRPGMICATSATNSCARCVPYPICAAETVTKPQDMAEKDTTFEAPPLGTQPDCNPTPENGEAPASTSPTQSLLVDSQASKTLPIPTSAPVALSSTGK
Experiment: SPR

Kd: 1.12 nM and 1.14 nM and 1.23 nM and 1.36 nM
B1: HuMab 5F11 (antibody, V domains shown)
VH: QVQLQQWGAGLLKPSETLSLTCAVYGGSFSAYYWSWIRQPPGKGLEWIGDINHGGGTNYNPSLKSRVTISVDTSKNQFSLKLNSVTAADTAVYYCASLTAYWGQGSLVTVSS
VL: DIQMTQSPTSLSASVGDRVTITCRASQGISSWLTWYQQKPEKAPKSLIYAASSLQSGVPSRFSGSGSGTDFTLTISSLQPEDFATYYCQQYDSYPITFGQGTRLEIK
